Experimental data taken from the supplement of paper PMC12042874.
± gives the uncertainty stated by the source.

Assay: amyloid nucleation score (Sup35N fusion, yeast selection) (log enrichment); library NNK3; higher = more nucleation; inactive = no reads after selection
Summary of the method: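 Plasmid inserts were Illumina-sequenced at input and output from psi-negative yeast expressing Sup35N fused to peptides of 20 random codons. The yeast were induced with 100 μM copper sulfate for 24 hours and grown 7 days at 30°C on medium lacking adenine and uracil, and sequences with under 100 input reads were excluded. Nucleation score is the DiMSum log enrichment of output over input reads, centred on the mode score of non-aggregating sequences.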

Substance	amyloid nucleation score
PHNGHKNSWCTVPGSSCRSV	1.14 ± 0.18
CSNVRPLD	inactive
FTLNVIF	1.9 ± 0.069
MILNWARQRGIECMAYSRVW	inactive
RVCYEFKYKIKYVLD	-0.457 ± 0.5
GEISWDC	0.283 ± 0.3
HCRAYITEPCKTWLY	inactive
CRENKEYIQGSDTLNFHYPM	inactive
TGVWLRACSYEGEFGEDRKL	inactive
LYLFTPVWDFNCLPFGLAYK	inactive
VLCHKSKWNMH	0.322 ± 0.26
SLIGSRGPLNSGEVMMMLFK	inactive
SQFTFNCTIFNGL	2.65 ± 0.064
SYVNIFHDGIIMNSYVAWGH	inactive
ISINMRAGMDG	inactive
IFYVLSTMNDSIVV	inactive
WFMVIAVCMSAFESKLARFH	inactive
FAGESN	inactive
QATFGWTANSSLFFSRDFLA	inactive
LLAGQAIEIDVCAQGLKLKF	-0.968 ± 1.8
CVSEKQWLSVVVELVFWGCG	-0.821 ± 1.3
LEGLSKNQWGCLDATCSYTE	inactive
VNEFNGDGGSQLRQKQNPLF	inactive
WISEDTRLLHWLLQCVWIRI	-0.531 ± 1.4

Substance	amyloid nucleation score
VNLDTSSGKT	inactive
DFDNLFYTTLNSQFPRTRFV	inactive
RLYSLSSRCNLNRATPPTKS	-0.041 ± 0.75
LNHYECSW	inactive
ESKMGCP	inactive
RYFPTV	inactive
NVNGSFKI	inactive
RVVPL	inactive
FAYLVS	inactive
GNYIITLY	inactive
LGSFNDVWIVCADWFAFLKV	inactive
VSYVGLDSDICSFNWLSLLA	inactive
GGLLWAKCVMLILYYVPMGL	inactive
SVHWSINWTGLERVSRTQRL	0.523 ± 0.24
ITSGFDVEKCGNVNLSWEVW	inactive
SLKRHQTWLDGVEVRVVYMP	inactive
GRMEGNRFIDRLLGLHTSSP	inactive
RASFLSFCFSMAGFSLFDIK	inactive
QVPYFYLSVFLFFSPCSINF	1.74 ± 0.063
LNFEATSYLTMRYDLSYVRF	inactive
VCKLVTYSYLLVREPRSADS	inactive
YSLNTSFIYIKIRYH	1.28 ± 0.11
ERNNKCDNTVLMKREELQG	inactive
LTYHWNVVQLTLGNCFSGWG	2.55 ± 0.059

Substance	amyloid nucleation score
CRWGNVIYFFTR	1.45 ± 0.12
DQGLLRLMDTWLCMGVRQPS	inactive
KLPSEISKNYT	inactive
YLRMLVDELKITHHH	inactive
LNSVKAGFINTKDPVMDSMC	-0.254 ± 0.84
WGITA	inactive
CVRNENRSGS	-0.974 ± 2.5
MNTSDSARKSRYRARG	inactive
SFKTF	inactive
KVMNLVRFRTDFLESNMRWC	0.751 ± 0.17
RLNCNYTFLLNTIHSPWCCC	inactive
YCMWLPFMVNFH	2.58 ± 0.057
VFTYCYVFHQVVSLRQARLR	inactive
GVTLGQLR	1.42 ± 0.15
GVWKLVSRARNDSINLR	inactive
LSYFSLFYADGRHFRCLLDN	inactive
LRMFSRVGRNRCYNITSFTC	inactive
TPSGCAFNHCVMGTGDFQYM	2.38 ± 0.073
TSDSMSLNFVTWVNQI	inactive
RYLILMDCFR	0.291 ± 0.23
LCLMDRGYVS	-0.779 ± 1.4
LVIGVYWDRSPLVSSPFPLN	inactive
YKETDLQIFRAIVVSSSYWD	inactive
AVGKM	-0.082 ± 0.88

Substance	amyloid nucleation score
WPFMNYVNENCSWYSS	1.09 ± 0.14
HQARIYVSYYPVLSFDPFRK	2.06 ± 0.074
ISSFCRGLVAFEPCWFGLEK	inactive
SLGMMVWVH	inactive
FITFLLVVFSKKCVNAK	inactive
FIVVPVGVKHDVS	inactive
SMIKPAIFGYNVMLVPYINC	inactive
FQRVGRFPSYSTCAGRVATG	inactive
SYVFTR	inactive
SVYTGISLSKFHGSPLVRV	-0.408 ± 1.2
HFPSFFSIIPYRACNTACSA	-0.984 ± 1.4
NVCDRLLDKPHELSFSEKSV	inactive
IIVTL	inactive
HPSSNLMHLM	inactive
TLYWFHTGICAYRMWTSVFF	inactive
QDEPTMNVQ	inactive
CTHEFTTRHLICFRFSKLVY	inactive
RYPTDSVWGIGSGLVN	inactive
TRSNRRHVRVT	inactive
DGHKCCTG	inactive
NRGSGRSMYMRSSFYSESGS	0.522 ± 0.28
VYFMCVQHWLVSGHPDPLNE	-0.246 ± 0.69
FMAQPSLIGLFRSQS	inactive
KWWCHLWVIGVGFALGLYTG	inactive

Substance	amyloid nucleation score
IKFGLTYSRSTMSGHSLKGY	inactive
CLFYLCRARMMFNWPSCTRG	0.933 ± 0.22
IKYKDKGIWFLVSCGHFRLR	inactive
AFLSLCKLDYSYANCLVIVV	inactive
HSWWLWNGFVGLAPLVDNFF	inactive
LDVKQSSRSLREAVDVFNNH	inactive
LRFNDYMC	inactive
PNFLRTCLLTYRGRSY	inactive
SNRVRMSFLLADVYCNQTEV	-0.183 ± 0.42
TYIRGQRCDIQMETWMTLCS	inactive
CLSMSLAKLGVIYL	0.724 ± 0.21
SGRRCKAICA	inactive
ISLVGFHVKLVFL	2.11 ± 0.09
SDGSNKVLESRCDSLHNVIV	inactive
QYQCADGKDNFIL	inactive
YNNSTFYTEPTLWD	inactive
GRDAVLI	-0.785 ± 1.1
LAVALIIRMSYLELGLLNPT	inactive
CLFRQTFCMGP	inactive
VHGKWIDRRYNVISRPLGGG	inactive
YSHGTAKIPQAVVNDVIKSI	inactive
EVGVTSLTIGHVT	1.29 ± 0.096
SLIITTLTHEYCMCHRIWST	2.25 ± 0.071
CPYLLNVIMWAIFRSANFVA	inactive

Substance	amyloid nucleation score
YWVSSYCIPMCGYQVWCVWG	inactive
GRGHGEGTRLASSTIVIMHV	-0.395 ± 0.61
VLVLS	inactive
EILSPVGTSTCILTSPRTCY	inactive
SWDVGGLYCKINGPIMLSLD	inactive
YEGRSNSVRSK	inactive
WDKSLSVRTQVCHNRDS	inactive
WSVVRRAELSNSVKFEDHGM	inactive
GLFLRMLLRADPAKSWENRI	0.238 ± 0.27
YHDLKNATHVV	inactive
YSGTFDFLIKA	inactive
YQGNLGPHT	inactive
YLITHV	inactive
NQTGSSRTSCCMDRWLMYIA	inactive
WIRVDRCGCARVPLGDHVKK	inactive
YRMIKHRTFDSPVLFS	inactive
RGCCKRPDGSKLVFIQMLIS	inactive
GKKNYLF	inactive
FLLMCLMRCTRMETRCISAC	inactive
YGWVVSSLCYGKFYICIWNL	0.797 ± 0.22
EKDMFQNVLLVKAYD	inactive
CMFSLV	inactive
NWVAKMGFVHGSSKRYSPPK	0.111 ± 0.61
TSRHVLR	-0.187 ± 0.66

Substance	amyloid nucleation score
FVFIFWTLFGRSRVDVASNM	inactive
GISFSFRFLNENFHCVFRRA	inactive
GDRVSEVTDCVFQAISIRCA	inactive
LKVVVDQKVG	1.27 ± 0.15
IWNLWFRTFCT	0.519 ± 0.25
VPGDEHRDGKLGAKWWTCRR	inactive
PLTLIQDQQGRVSFSKA	inactive
KYRFLSKSRMRGSACHGKDQ	inactive
GPVLGSCIRRH	inactive
SPTLRFGRQKFRQCGVKRVS	1.35 ± 0.11
MIMTMTAGFFLELLW	inactive
SESMDGNFQKCLSAVCALIE	inactive
LQYWSFKSSSYGGLDIYCEA	inactive
RTVELEIHGLHV	inactive
SNLVGCKLIHV	inactive
EGRWTCPFGGWTESFGSLYW	inactive
ERTSYSC	inactive
GEYMRLYVSVTGYTVYYSVR	0.882 ± 0.2
NVVFSFMVTRCDRLWS	0.661 ± 0.27
